Numbering of substitutions follows the chain as printed.
T1: human CXCL13 (human, UniProt O43927 23-109)
T1 construct: also called huCXCL13; rhCXCL13
T1 sequence (looked up): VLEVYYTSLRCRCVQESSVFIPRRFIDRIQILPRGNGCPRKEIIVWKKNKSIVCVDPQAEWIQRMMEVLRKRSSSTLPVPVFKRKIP

B1: 411A11E9 chimeric Fab (Fab, V domains shown)
VH: EVQLVESGGGLVQPGGSLKLSCVVSGFTFSDYYMAWVRQTPTKGLEWVASINYDGGDTYYRDSVKGRFTVSRNNAKSSLFLQMDSLRSEDTATYYCKTEEDYDGSYVMDAWGQGASVIVSS
VL: DIQMTQSPSFLSASVGDRVTISCKASQNINKELTWYQQKLGKAPKRLIYNTNILQTGIPSRFSGSGSNTDYTLTISSLQPEDFATYFCLQQSSLYTFGAGTKLELK
notes: Fab
B2: 64C10G1-VH1VL3 (Fab, V domains shown)
VH: EVQLVESGGGLVQPGGSLRLSCAASGFTFSSYAMSWVRQAPGKGLEWVATISDGGSDAYYPDNVKGRFTISRDNAKNSLYLQMNSLRAEDTAVYYCARDYYGSGYEDSPMDYWGQGTLVTVSS
VL: DIQMTQSPSSLSASVGDRVTITCKASQDINKYIAWYQQKPGKAPKLLIHYTSTLQPGIPSRFSGSGSGTDFTFTISSLQPEDFATYYCLQYDNLYTFGGGTKLEIK
notes: Humanized Fab, human gamma 1 and kappa constant domains; also called 64C10G1-VH1VL3(Fab)
B3: 64C10G1-VH1VL4 (Fab, V domains shown)
VH: B2 VH
VL: B2 VL with F71Y
notes: Humanized Fab, human gamma 1 and kappa constant domains; also called 64C10G1-VH1VL4(Fab)
B4: 64C10G1-VH1VL1 (Fab, V domains shown)
VH: B2 VH
VL: B2 VL with H49Y, I58V, F83I
notes: Humanized Fab, human gamma 1 and kappa constant domains; also called 64C10G1-VH1VL1(Fab)
B5: 64C10G1-VH1VL2 (Fab, V domains shown)
VH: B2 VH
VL: B2 VL with I58V
notes: Humanized Fab, human gamma 1 and kappa constant domains; also called 64C10G1-VH1VL2(Fab)
B6: 21H12D9 chimeric Fab (Fab, V domains shown)
VH: EVQLQQSGPVLVRPGASVKMSCKASGYTFTDYYMNWVKQSHGKSLEWIGVINPNNGGTTYKEKFKGKATLTVDKSSGTAYMELNSLTSEDSAVYYCARDDYDAGYWGQGTTLTVSS
VL: DIVMTQFQKFMSTTVGDRVSITCKASQNVDTAVAWYQHKPGQSPKLLIYSASHRYTGVPDRFTGSGSGTDFTLTISNVQSEDLADYFCQQYTDFPLTFGAGTKLELK
notes: Fab; also called 21VH12D9-Chimeric
B7: 408E3F3 chimeric human IgG1 antibody (antibody, V domains shown)
VH: HVTLRESGPGVLQPSKTLSLTCSFSGFSLSTSAMVVSWIRQSSGMSLEWLAAIDWEGDKYYNPSLESRLTVSRDISDTQVFLRITSVDVADTATYYCAVMSSADSHSVLDAWGQGVSVTVSS
VL: DIKMTQSPSFLSASVGDRVTINCKASQNIHNYLNWYQQKFGEAPRLLIYNTNNLQTGIPSRFSGSGSGTDFTLTISSLQPEDVATYFCLQHSSSLTFGSGTKLEIN
notes: Chimeric human IgG1
B8: 71F4A3-VH1VL1 (Hz71F4) Fab (Fab, V domains shown)
VH: EVQLVESGGGLVQPGGSLRLSCAASGIDFSRYWMSWVRQAPGKGLEWVAEINPDSSTINYAPSLKDRFTISRDNAKNSLYLQMNSLRAEDTAVYYCARQDDYEYYAMDYWGQGTTVTVSS
VL: DIQMTQSPSSLSASVGDRVTITCKASQDVNTGVAWYQQKPGKAPKLLIYSASYRYTGVPSRFSGSGSGTDFTFTISSLQPEDIATYYCQQYYSTPLTFGGGTKLEIK
notes: Humanized Fab, human gamma 1 and kappa constant domains
B9: 71F4A3-VH1VL2 (Fab, V domains shown)
VH: B8 VH
VL: B8 VL with L78V
notes: as for B8
B10: 329F2E1 chimeric Fab (Fab, V domains shown)
VH: EVKLLQSGGGLVQPGGSLKLSCAASGIDFSRYWMSWVRRAPGKGLEWIGEINPDSSTINYAPSLKDKFIISRDNAKNTLYLQMSKVRSEDTALYYCARQDDYDYYAMDYWGQGTSVTVSS
VL: DIVMTQSHKFMSTSVGDRVSITCKASQDVSTGVAWYQQKPGQSPKLLIYSASYRYTGVPDRFTGSGSRTDFTFTISSVQTEDPAVYYCHQYYTIPLTFGAGTELELK
notes: Fab
B11: 415A3D1 chimeric Fab (Fab, V domains shown)
VH: EVKLLESGGGLVQAGGSMRLSCGAFGFTVTDFYINWIRQPAGKAPEWLGFMRNKANGYTTEYNPSVKGRFTISRNNTQNMPYLQMNTLRTEDTAIYYCARSRYNADDYYVGVMDVWGQGASVTVSS
VL: DIQMTQFPASLSASLGETVSIECLASEDIYNNLAWYQQKPGKSPQLLIYYTNSLQDGVPSRFSGTGSGTQYSLKINSLESEDAATYFCLQDSEYPWTFGGGTKLKLK
notes: Fab; label read as clone 415A3D1F4
B12: 19H7E10 chimeric human IgG1 antibody (antibody, V domains shown)
VH: EVQLQQSGPELVKPGASVKISCQASGYAFSDYYMNWVKQSHGKRLEWIGDINPNNDGTTYNQKFKDKATLTVDKSSSTAYMDLRSLTSEDSAVYYCARLSWSFFAMDYWGQGTSVTVSS
VL: DIVMTQSHKFMSTSVGDRVSITCKASQDVSSGVAWYQQKPGQSPKVLIYSASHRHTGVPDRFTASGSGTDFTFTISSVQAEDLAVYYCQQYYNTPWTFGGGTKLEIK
notes: Chimeric human IgG1

How the values were obtained:
human CXCL13 [1] = target: T1, human CXCL13; experiment: SPR Biacore 8K, Fab over immobilised CXCL13
Description: HuCXCL13 binding affinity by Surface Plasmon Resonance. 411A11E9, 415A3D1, 64C10G1, 21H12D9, 329F2E1, 71F4A3 were selected to produce Fab and tested binding affinity. The binding of the antibodies to huCXCL13 was examined by Biacore 8K. 10 mM HEPES, 150 mM NaCl, 3 mM EDTA, 0.05% Tween-20, pH 7.4 served as running buffer and 10 mM glycine-HCl, pH2.0 served as regeneration buffer. CXCL13 protein was immobilized on Sensor Chip CM5 using amine coupling method (immobilization level ˜30RU). The serial concentrations of Fab (0-16 nM) were injected over immobilized CXCL13 at the flow rate of 30 μl/min. The dissociation phases were 600s.

human CXCL13 [2] = target: T1, human CXCL13; experiment: SPR Biacore 8K, Fab over immobilised CXCL13; remark: listed apart in the source
Description: Among all humanized Fab samples, 71F4A3-VH2VL1, 71F4A3-VH1VL1 (Hz71F4), 71F4A3-VH1VL2, 71F4A3-VH3VL1, 411A11E9-VH1VL4, 411A11E9-VH3VL4, 411A11E9-VH2VL4, 411A11E9-VH3VL2, 411A11E9-VH1VL2, 21H12D9-VH1VL1, 21H12D9-VH2VL2, 21H12D9-VH3VL3, 21H12D9-VH1VL2, 64C10G1-VH1VL3, 64C10G1-VH1VL4, 64C10G1-VH1VL1, 64C10G1-VH1VL2 were selected to test affinity by Biacore 8K. 10 mM HEPES, 150 mM NaCl, 3 mM EDTA, 0.05% Tween-20, pH 7.4 served as running buffer and 10 mM glycine-HCl, pH2.0 served as regeneration buffer. CXCL13 protein were immobilized on Sensor Chip CM5 using amine coupling method (immobilization level ˜250RU). The serial concentrations of Fab (0-20 nM) were injected over immobilized CXCL13 at the flow rate of 30 μl/min. The dissociation phases were 600s.

human CXCL13 [3] = target: T1, human CXCL13; experiment: SPR Biacore, off-rate ranking of Fabs
human CXCL13 [4] = target: T1, human CXCL13; experiment: ELISA binding, Fab
human CXCL13 [5] = target: T1, human CXCL13; experiment: cell-based blocking assay, CXCL13 to CXCR5 cells
Summary of the method: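 CHO-K1 cells expressing CXCR5 were plated at 5×10⁴/well overnight at 37° C, fixed with 2% PFA and blocked with 1% BSA in PBST. Serially diluted humanized Fabs were mixed with an equal volume of human CXCL13 at 0.3 μg/ml and pre-incubated for 30 min at room temperature, and 100 μl of each mix was added to the cells for 30 min. After three PBST washes, bound CXCL13 was captured with 3 μg/ml of a human anti-CXCL13 antibody, detected with anti-human Fc-HRP and read at 450 nm. IC50 was derived from the titration.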

human CXCL13 [6] = target: T1, human CXCL13; experiment: cell-based blocking ELISA, CXCL13 to CHO-K1-CXCR5
Description: This example tested the blocking of the anti-CXCL13 chimeric antibodies to CHO-K1-CXCR5 cells. Briefly, 5×10⁴ CHO-K1-CXCR5 cells were plated in 96-well plate with 100 μl of culture medium and incubated at 37° C. overnight. Cells were fixed with 100 μl of 2% PFA at RT for 1 hr after washing with PBS for 1 time. Samples were blocked with 1% BSA in PBST for 1 hr at RT. Antibodies were serial diluted from 50 μg/ml by 3-fold with 1% BSA/PBST and pre-incubated with equal volume of 0.3 μg/ml human CXCL13 for 30 min at RT. 100 μl of antibody-antigen complex was transferred into each cell wells for 30 min at RT. Samples were washed with 1×PBST for 3 times and 100 μl of 3 μg/ml of human Mab5261 antibody was added into each well to capture human CXCL13 and anti-human Fc-HRP was used to indirectly detect human CXCL13 when it bound to CHO-K1-CXCR5 cells.
Then read at 450 nm. […] Among all clones, 415A3D1, 64C10G1, 1H3A11, 414D10F5, 411A11E9, 21H12D9, 71F4A3, 329F2E1 show completely blocking activity and 408E3F3, 19H7E10, 339A6E7 appeared to be partial blockers.

Row | Binder | Kd (human CXCL13 [1]) [nM] | koff (human CXCL13 [1]) [s⁻¹] | kon (human CXCL13 [1]) [M⁻¹ s⁻¹] | Kd (human CXCL13 [2]) [nM] | koff (human CXCL13 [2]) [s⁻¹] | kon (human CXCL13 [2]) [M⁻¹ s⁻¹] | Kd (human CXCL13 [3]) [nM] | koff (human CXCL13 [3]) [s⁻¹] | kon (human CXCL13 [3]) [M⁻¹ s⁻¹] | EC50 (human CXCL13 [4]) [nM] | IC50 (human CXCL13 [5]) [nM] | IC50 (human CXCL13 [6]) [µg/mL]
1 | B1 | 0.158 | 0.000326 | 2.06e+06 | 0.74 | 0.00156 | 2.11e+06 | 0.708 | 0.00287 | 4.05e+06 | – | – | –
2 | B2 | – | – | – | 2.98 | 0.00543 | 1.82e+06 | 2.98 | 0.00543 | 1.82e+06 | 1.07 | 7.69 | –
3 | B3 | – | – | – | 3.68 | 0.00713 | 1.94e+06 | 3.68 | 0.00713 | 1.94e+06 | 0.784 | 6.88 | –
4 | B4 | – | – | – | 5.89 | 0.0255 | 4.33e+06 | 5.89 | 0.0255 | 4.33e+06 | 1.29 | 7.79 | –
5 | B5 | – | – | – | 1.92 | 0.00515 | 2.69e+06 | 1.92 | 0.00515 | 2.69e+06 | 1.23 | 7.02 | –
6 | B6 | 0.341 | 0.000731 | 2.14e+06 | 1.42 | 0.00258 | 1.82e+06 | 1.18 | 0.00139 | 1.17e+06 | – | – | –
7 | B7 | – | – | – | – | – | – | – | – | – | – | – | 7.64
8 | B8 | – | – | – | 0.619 | 0.00125 | 2.02e+06 | 0.426 | 0.00136 | 3.2e+06 | 0.974 | 11.2 | –
9 | B9 | – | – | – | 0.628 | 0.00116 | 1.84e+06 | 0.516 | 0.00147 | 2.85e+06 | 1.18 | 10.7 | –
10 | B10 | 0.602 | 0.000581 | 966000 | – | – | – | – | – | – | – | – | –
11 | B11 | 1.2 | 0.00306 | 2.56e+06 | – | – | – | – | – | – | – | – | –
12 | B12 | – | – | – | – | – | – | – | – | – | – | – | 15.1
